Assay results reported in PMC8972186.

Tests used:
[1] = target: dynamic microtubules grown from purified bovine brain tubulin (bovine) (UniProt Q6B856); assay: optical trap force clamp assay
[2] = target: dynamic microtubules grown from purified bovine brain tubulin (bovine) (UniProt Q6B856); assay: optical trap rupture force assay

## wild-type Ndc80 complex (from UniProt P40460 1-691; P33895 1-451; Q04477 1-213; P40014 1-221)
[1]
  percent of beads tracking with shortening microtubule tips under 1.5 pN: 7%
[2]
  median rupture strength: 3.2 pN
